Among the data in PMC11897156, “Ex.50.T aptamer impairs tumor–stroma cross-talk in breast cancer by targeting gremlin-1” are Kd values, retold here.

Series [1] addresses T1, Gremlin-1 (recombinant) (UniProt O60565 25-184).
T1 sequence: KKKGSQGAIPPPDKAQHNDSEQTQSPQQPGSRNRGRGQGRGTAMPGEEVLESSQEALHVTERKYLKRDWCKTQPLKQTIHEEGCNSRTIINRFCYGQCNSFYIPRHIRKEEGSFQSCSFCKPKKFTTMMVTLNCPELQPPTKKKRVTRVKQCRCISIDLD
The series can be described thus: SPR; GREM1 immobilized, aptamer 0.062-1 uM, 25 C; kon 3.39e4 M-1 s-1, koff 1.58e-3 s-1; Aptamer refolded 85 C 5 min, 4 C 2 min, 37 C 10 min; ELONA: PBS, 3% BSA block, 1 h; pull-down: 10 mM PBS with Ca2+ and Mg2+, room temperature; SPR at 25 C (buffer not in material); cell binding: serum-free medium, 37 C, 30 min. To be noted: protein: commercial; chain copies: 2; label: biotin (ELONA, pull-down); none stated for SPR; hairpin; predicted stem of 11 bp, 2 internal loops, 1 terminal loop.

In series [2] the target is T1, Gremlin-1 (recombinant). The series can be described thus: ELONA; apparent Kd; unit inferred, nM implied by agreement with SPR; GREM1 coated, 200 nM aptamer; Aptamer refolded 85 C 5 min, 4 C 2 min, 37 C 10 min; ELONA: PBS, 3% BSA block, 1 h; pull-down: 10 mM PBS with Ca2+ and Mg2+, room temperature; SPR at 25 C (buffer not in material); cell binding: serum-free medium, 37 C, 30 min. As to conditions: protein: commercial; chain copies: 2; label: biotin (ELONA, pull-down); none stated for SPR; hairpin; predicted stem of 11 bp, 2 internal loops, 1 terminal loop.

B1: ex.50.T (structured_RNA)
RNA: UGUGGCAGUUAAGAAUAGAUCUUCGCUGCGAUU
modifications: lowercase u/c in printed sequence probably 2'-F pyrimidines (not stated in material)
For the molecule B1, the Kd in the series with Gremlin-1 (recombinant) [1] was 46.7 nM; in the series with Gremlin-1 (recombinant) [2], 37.7 nM.
